# Assay results from the nanobody polyreactivity screen of Harvey et al. (2022).
# Test: yeast display, Sf9 membrane polyspecificity reagent, FACS + sequencing; frameworks hold sequencing errors
# Procedure, shortened: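 After 36–48 hours of galactose induction, yeast (Saccharomyces cerevisiae BJ5465) displaying a synthetic nanobody library were stained at 4 °C for 1 hour with 10% biotinylated, detergent-solubilized Sf9 membrane reagent. Streptavidin microbeads enriched the stained cells before FACS sorting into low and high (top ~1%) gates on anti-HA and streptavidin fluorescence. Each clone's polyreactivity label reflects its gate of origin.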
sequence,measurement,value
QVQLVETGGGLVQAGGSLRLSCAASGSIFVYYAMGWYRQAPGKERELVAAISSRGGRTYYADSVKGRFTISRDNAKHTVYLQMNSLIPEDTAVYYCAASPDYSRYWVYAPNRRLGYWGQGTQVTVSS,polyreactivity (PSR sort gate),high polyreactivity
QVQLVETGGGLVQAGGSLRLSCAASGSISPINAMGWYRQPPGKERELVAAINGGGSTYYADSVKGRFTISRDNAKNTVYLQMNSLKPEDTAVYYCSRDALHYAGSLHRYGYWGQGTQVTLSS,polyreactivity (PSR sort gate),low polyreactivity
QVQLVETGGGLVQAGGSLRLSCAASGSTFEYYAMGWYRQAPGKERELVAAISSGPSTTYADSVKGRFTISRDNAKNTVYLQMNSLKPEDTAVYYCARRDGTTQALFGYDYWGQGTQVTVSS,polyreactivity (PSR sort gate),low polyreactivity
QVQLVETGGGLVQAGGSLRLSCAASGSTFGYYAMGWYRQAPGKERELVAAITSGGSTYYADSVKGRFTISRDNAKNSVFLQMNSLKPEDTAVYYCAATWYGFAYDYWGQGTQVTVSS,polyreactivity (PSR sort gate),low polyreactivity
QVQLVETGGGLVQAGGSLRLSCAASGSTFYPTYAMGWYRQAPGKERELVATITGSGGSTYYADSVKGRFTISRDNAKNTVYLKMNSLKPEDTAVYYCAADRWYSRYTRYGYWGQGTQVTVSS,polyreactivity (PSR sort gate),low polyreactivity
QVQLVETGGGLVQAGGSLRLSCAASGSTFYRYAMGWYRQAPGKERELVAAITRSGGGTHYADSVKGRFTISRDNAKNTVYLQMNSLKPEDTAVYYCAKRQSGYRYDYWGQGTQVTVSS,polyreactivity (PSR sort gate),low polyreactivity
QVQLVETGGGLVQAGGSLRLSCAASGSTLTYYTMGWYRQAPGKERELVARISWSSGRTYYAVSVKGRFTISRDNAMNTVYLQMNSLKPEDTAVYYCNADRTYYRGLDYWGQGTQVTVSS,polyreactivity (PSR sort gate),high polyreactivity
QVQLVETGGGLVQAGGSLRLSCAASGYIFYPYTMGSYRPAPGKATELVAAITWSGSTYSADSVQGRFTMSRDTAKNTVYLQMKSLKPEDTAVYYCAADFDSYDSYTYLQYDYWGQGTQVTVSS,polyreactivity (PSR sort gate),low polyreactivity
QVQLVETGGGLVQAGGSLRLSCAASVIISSVYAMGWYRQAPGNERELVAAISGSGGSTYYADSVKGRFTISRDNAKNTVYLQMISLKPEDTAVYYCAKGYQYQGNSYGYWGQGTQVTVSS,polyreactivity (PSR sort gate),low polyreactivity
QVQLVETGGGLVQAGGSLRLSCAATEFIFRNYDMGWYRQAPGKERELVASISRGTSTNYADSVKGRFTISRDNAKNTVYLQKNSLKPEDTAVYYCNKRFYYHPFDYWGQGSQVTVSS,polyreactivity (PSR sort gate),high polyreactivity
QVQLVETGGGLVQAGGSLRLSCAATGFTFGYYTMGWYRQAPGKEGELVAAITWRGGSTYYADSVKGRFTISRDNAKNTVYLQMNSLKPEDTAVYYCNAVVLGYYPSGVYPDDEEHDYWGQGTQVTVSS,polyreactivity (PSR sort gate),high polyreactivity
QVQLVETGGGLVQAGGSLRLSCAATGLIFYSYPMGWYRQAPGKERELVAALNGGGGSTYYADSVKGRFTISRDNAKNTVYLQMKSLKPEDTAVYYCAADLYNRGRGSSQSYRTGYDYWGQGTQVTVSS,polyreactivity (PSR sort gate),high polyreactivity
QVQLVETGGGLVQAGGSLRLSCAPSGFTFRRNAMGWYRQAPGKERELVAVITSSARTNYADSVKGRFTISRDNAKNTVYLQMNSLKPEDTAVYYCAARYHYGVWRERHGYWGQGTQVTVSS,polyreactivity (PSR sort gate),high polyreactivity
QVQLVETGGGLVQAGGSLRLSCASSGFIFVRYAMGWYRQAPGKERELVAAITKGGGRTYYADSVKGRFTISRDNAKNTVYLQMNSLKPEDTAVYYCATAGAHGRERDYWGQGTQVTVSS,polyreactivity (PSR sort gate),high polyreactivity
QVQLVETGGGLVQAGGSLRLSSAASGGIFSPNAMGWYRQAPGKEREFVAAISSNGGSTNYADSVKGRFTISRDNAKNTVYLQMNSLKPEDTAVYYCAADYPDHPLWGPEYDYWGQRTQVTVSS,polyreactivity (PSR sort gate),low polyreactivity
QVQLVETGGGLVQAGGSLRLSSAGSGSISYAYAMGWYRQARGKEREFVAAITDSGGSTYYADSVKGRFTISRDNAKNTVYSQMNSLKPEDTAVYYCAAGGPWWSGYYYWGQGTQVTVSS,polyreactivity (PSR sort gate),low polyreactivity
QVQLVETGGGLVQAGGSLRVSCAASGSIFVGYPMGWYRQAPGKERELVAAISSNGGSTYYADSVKGRFTISRDNAKNTVYVQMNSLKPEDTAVYYCAAGVRRVYASGHGAYGYWGQGTQVTVSS,polyreactivity (PSR sort gate),low polyreactivity
QVQLVETGGGLVQAGGSLSLSCAASGYIFEINAKGWYRQAPGKERELVADIRRGDSTNYADSVKGRFTISRDNSMNTVYLQMNSLKPEDTAVYYCAAYHRLFDYDYCGQGTQVTVSS,polyreactivity (PSR sort gate),high polyreactivity
QVQLVETGGGLVQAGGSLSLSCAGSVSTFWFYPMGCYRQATGKEREFVATISRSGGSTHNADSVKGRFTISSDNAKNTVYLQMNSLKPEDTAVYYCAKYQRYYSNDYNYWGQGTQVTVSS,polyreactivity (PSR sort gate),high polyreactivity
QVQLVETGGGLVQAGGTLRLSCAASGRTFSRNAMGCDRPAPGKERELVAAITSGGGTYYADSVKGRFTISRDNAKNTVYLQMNSLKPEDTAVYYCNKKTSAGRVDYWGQGTQVTVSS,polyreactivity (PSR sort gate),high polyreactivity
QVQLVETGGGLVQAGGTLRLSCADSGSIYEDNAKGWYRQAPGKERELDAAITWSGDSTYYADSVKGRFTISRDTEKNTVYLQMNSLKPEDTAVYYCNTYRIFCYSRYYAGYDYWGQGTQVTVSS,polyreactivity (PSR sort gate),low polyreactivity
QVQLVETGRGLVQAGGSLRISCAPCGFTFWRNAMGGYRQAPGKERELVAAINWSGGSPYYADSVKGRFTISRDNAMNTVYLQINSRKADDTAVYYCNRRGQYTFWPIHEYWGQGTQVTVSS,polyreactivity (PSR sort gate),high polyreactivity
QVQLVETGRGLVQAGGSLRLICAASGRTFGYYAMGWYRQAPGKEREFVAAISHSAGSTSYADSVKGRFTISRDNAKNTVYLQMNSLKPEDTAVFYFAAEICYLSVPRYDYWGQGTQVTVSS,polyreactivity (PSR sort gate),low polyreactivity
QVQLVETGRGLVQAGGSLRLSCAASGLTFKFNAMGWYRQAPGKEREFVAAISRSGGRTYYAESVKGRFTISRDNAKNTVYFQMNSLKPEDTAVYFCADEEIVYYPVLFEYDYWGQGTQVTASS,polyreactivity (PSR sort gate),high polyreactivity
QVQLVETGRGLVQAGGSLRLSCAHSGRTFFSYAMGWYRQAPGKEREFVAAITGGGTYYADSVKRRFTISSDNAKNTVYLHMNSLKPEDTAVYYCAAAKRGTDYLSSFWMDYWGQVTQVTVSS,polyreactivity (PSR sort gate),low polyreactivity
QVQLVETGVGIVQAGGSLRLSCASSGSNCPLYAMGWYRQAPGKEREFVAAIRWIGGSTYYADSVKRRFTNSRDYAKNSVYLQMISLKPVDTAVYYCAAVYVVSAFDYWGQGTQVSVSS,polyreactivity (PSR sort gate),low polyreactivity
QVQLVETGVGLVKAGGSLRLSSAASGYIFYYYAMGWYRQERGKERELVAAISTSDTRTFYADSVKGRFSISRDNAKNTVYLQMNSLKPEDTAVYYCAASLYICGPNYGYEYWGLGTQVTVSS,polyreactivity (PSR sort gate),low polyreactivity
QVQLVETGVGLVQAGGSLRLSCAASGLTFPNYDMGWYRQAPGKEMELVAAISSSGGSTYYADSVKGRFTISRDNAKNTVYLQMNSLKPEDTAVYYCATEWSYYNYGYDYWGQGTQVTVSS,polyreactivity (PSR sort gate),low polyreactivity
QVQLVETGVGLVQAGGSLRLSSAASGSIFFTYTMGRYRQAPGKERELVATITYGGGGTYYADSVKGRFTISRDNAKNTVYLQMNSLKAEDTAVYYCAKDHATVLSRWYRGMDYWGQGTQVTVSS,polyreactivity (PSR sort gate),low polyreactivity
QVQLVETRGGLVQAGGILRFSCAASGFTFSSNDMGWYRQAPAKEREFVAVIDSGDITNYADSVKGRFTISRDNAKNTVYLQMNSLKPEDTAVYYCAARYYAAGIGSRYDYWGQGTQVTVSS,polyreactivity (PSR sort gate),high polyreactivity
QVQLVETVGGLVQAGGSLRLRCAASGSIFLYNAMGWYRQAPGKERELFAVINGRGGTYYADSVKGRFTISRDNAKNTVYLQINSLKPEDTAVYYCATGYTPSAWYDSVRFEDRDSWGQGTQVTVSS,polyreactivity (PSR sort gate),low polyreactivity
QVQLVETVGGLVQAGGSLRLSCAASGSTFYRYAMGWYRQAPGKERELVAAISSSGGSTYYADSVKGRFTISRDNAKNSVYLQMNSLKPEDSAVYYCNAARNFRYDYWGQGTQVTVSS,polyreactivity (PSR sort gate),high polyreactivity
QVQLVETWGGLVQAGGTLRLSCAASGSIFSPYAMGWYRQAPGKERELVAAISRNGGTTYYADSVKGRFTISRDNAKNTVYLQMNSLKPEDTAVYYCARLYYTQKDSKTGYGYWGQGTQVTVSS,polyreactivity (PSR sort gate),high polyreactivity
QVQLVEYVGGLVQAGGSLRLSCAASGRIFQYYARGWYRQAPGKERELVAAINSSGGRTYYADSVKGRFTISRDNAKNTVYLQMNSLKPEDTAVYDCNAVLSTRGMDYWGQGTQVTVSS,polyreactivity (PSR sort gate),high polyreactivity
QVQLVEYWGALVQAGGTLRLSCAASGRIFGTNALAWNRQAPGKERELEATITRGGGNTYYADSVKGRFTISRDKAKYTVYLQMNSLKPEDTAVYYCAAKFHRFAWYSHYDDWGQGSQVTVSS,polyreactivity (PSR sort gate),low polyreactivity
QVQLVGSGGGLLQAGASLRLSCAASGRIFRAYAMGWYRQAPGKERELVAAISWRSGSTYYADSVKGRFTISRDNAKTTVYLQMNSLKPEDTAVYYCAAYTNRVVNGYGYWGQGTQVTVSS,polyreactivity (PSR sort gate),high polyreactivity
QVQLVKSGGGLVQAGGSLRLSCAASGIIFTDYGMGWYRQAPGKERELVAVISRGGTTKYADSVKGRFTISRDNAKNTVYLQMNSLQPEDTAVYYCAARTWAGRWYGLDFWGQGTQVTVSS,polyreactivity (PSR sort gate),high polyreactivity
QVQLVKSGGGLVQAGGSLRLSCAASGSIFGYNTKGWYRQAPGKERELVATITYRGGSTYYADSVKGRFTISRDNAKNTVYLQMNRLKPEDTAVYYCARRVTRYPDTTWVSAGDYWGQGTQVTVSS,polyreactivity (PSR sort gate),high polyreactivity
QVQLVKSGGGLVQAGGSLRLSCAASGSTFYNAMGWYRQAPGKERELVAAISIGGSTYYADSVKGRFTNSRDNAKNTVYLQMNSLKPEDTAVYYCNTETGPSPVPVYDTEFDSWGQGTQVTVSS,polyreactivity (PSR sort gate),low polyreactivity
QVQLVQAGGGLVQAGGILRLSCAASGFTFQEYAMGWYRQAPGKAREFVAAITYSGGSTYADSVKGRFTISRDNAKNTVYLQMNSLKPEDTAVYYCNAQVYYSVRGYPYGYYRNDYWGQGTQVTVSS,polyreactivity (PSR sort gate),low polyreactivity
QVQLVQSCRVLLQARGSHTLSCADSGTTFGINANGCYTHSPGKERELVAAITFISGSTNYADSVKGRFTISRDNAKNTVYLQMNSLKPEDTAVYYCAADSVYYAGYDVDYWGQGTQVTVSS,polyreactivity (PSR sort gate),low polyreactivity
QVQLVQSGGGLVQAGGRLRLSSAASGRTFEPNAMGWYRQAPGKERELVAAITNGGSTSYADSVKGRFTISRDNAKNSVYLQMNSLKPEDTAVYDFAGDLGRNLLHTYYYWGQGTQVTVSS,polyreactivity (PSR sort gate),low polyreactivity
QVQLVQSGGGLVQAGGSLRLICAASGRTFYGNAMGWYRQAPGKERELVAAISRSGGRTYYADSVKGRFTISRDNAKNTVYLQMISLKTEDTAVYYCAKDYYYPSHTYGYWGQGTQVTVST,polyreactivity (PSR sort gate),high polyreactivity
